What was measured:
[1] = target: T1, extracellular domain of hCD4 fused with human Fc tag (hCD4-hFc) (human, UniProt P01730 26-396); experiment: ELISA, chimeric antibody on hCD4, method similar to Example 2
T1 construct: extracellular domain; also called human CD4-hFc; hCD4 (ELISA); not shown: human Fc tag
Description: (§1) Example 2: Selection of the Anti-hCD4 Hybridoma Antibodies Based on Binding and Gene Reporter Assays The binding interaction between hybridoma antibody and human CD4-hFc was measured by ELISA. 96-well plates (Costar, Cat. No:9018) were coated with 100 μL of 2 μg/ml CD4-hFc (CrownBio) in PBS buffer (Hyclone, Cat. No: SH30256.01B) overnight at 4° C. The wells were aspirated and non-specific binding sites were blocked by adding 200 μL of blocking buffer containing 1% (w/v) of bovine serum albumin (BSA, Roche, Cat. No: 738328) and incubating for 1 hour at 37° C. After the plates are washed three times with PBS buffer containing 0.05% (v/v) Tween™ 20 (Sigma, Cat. No: P1379), 100 μL hybridoma supernatant or a serial concentrations of purified antibody (starting from 20 μg/mL) diluted in blocking buffer was added to each well and incubated at room temperature for 1 hour. The plates were washed and incubated with 100 μL/well of Goat anti-Mouse IgG (Thermo, Cat. No:31432) in blocking buffer for 60 min. After the plates were washed, 100 μL/well of substrate solution TMB (eBioscience, Cat. No:00-4201-56) was added, and the plates were incubated for 2 min at room temperature before 100 μL/well of 2N H_2SO_4 was added to stop the reaction. The colorimetric signals were monitored at 450 nm using a SpectraMax Plus microplate reader (Molecular Devices). For the purified antibody, data were analyzed using GraphPad Prism 5 to calculated the $EC50$.
(§2) Freestyle 293 cells (200 mL at 1*10^6/mL) were transfected with 100 µg of each of the chimeric heavy and light chain expression plasmids and cultured for 6 days at 37° C. The chimeric antibody in the supernatant was then purified with Protein-A column (GE healthcare). Binding of the chimeric antibody with CD4 was measured by ELISA (FIG. 3, Table 5) and FACS (FIG. 4, Table 6), using the similar methods described above in Example 2.

[2] = target: T2, human CD4 on 293T cells stably expressing CD4 (CD4-293T) (human, UniProt P01730 26-458); experiment: FACS, chimeric antibody on CD4-293T cells
T2 construct: whole, on cells; also called 293T-CD4 cells; hCD4 (FACS)
Description: (§3) Cell binding analysis of anti-CD4 antibody was performed using 293T cell line stably expressing CD4 (CD4-293T). 2*10^5 CD4-293T cells were added to each well of 96-well plate and incubated with the indicated hybridoma supernatant or a serial concentrations of purified antibody (starting from 20 μg/mL) at 4° C. for 1 h. After the cells were washed three times with FACS buffer, the secondary antibody (PE Goat anti-mouse: 1:200) was added to the cells at 100 μl/well, and incubated at 4° C. for 40 min. Cells were washed three times with FACS buffer and analyzed by FACS Array. The binding EC50 of purified antibody was calculated with GraphPad Prism 5.
as §2

[3] = target: T3, extracellular domain of hCD4 fused with a histidine tag (hCD4-HisTag) (human, UniProt P01730 26-396); experiment: Biacore T200 SPR, antibody captured on Protein A, CD4-HisTag analyte, 1:1 fit, 25 C
T3 construct: extracellular domain; also called human CD4-HisTag; not shown: histidine tag
Description: The binding kinetics between CD4 and CD4 antibodies were measured by Biacore™ analysis, which was performed at 25° C. on a Biacore™ T200 instrument. Protein A (GE, Cat. No:29139131-AA) was diluted with 10 mM pH 5.0 sodium acetate and immobilized onto reference and experiment flow cells of a CM5 biosensor chip to around 15000 RU using an amine coupling kit (GE, BR10050). In the beginning of each cycle, diluted test antibody (1.5 µg/mL) was injected over experiment flow cell for 1 minute to be captured. CD4-HisTag analyte series were prepared by diluting the stocks with running buffer to 100 nM followed by 2-fold serial dilution in the same buffer down to 0.78 nM. Analytes were injected in series over the reference and experiment flow cells for 3 minutes at a flow rate of 30
μL/minute. Running buffer (PBS with 0.05% P20) was allowed to flow over for 10 minutes at a flow rate of 30 μL/minute. At the end of each cycle, the biosensor surface was regenerated with 3-minute injection of 10 mM pH 2.0 Glycine-HCl buffer at a flow rate of 10 μL/minute. For each analyte sample injection (i.e., each cycle), binding responses obtained from the experimental biosensor surface were double referenced by subtracting simultaneously recorded responses from the reference surface followed by additional subtraction of responses from a single referenced running buffer sample. The association and dissociation rate constants (ka and kd) were determined simultaneously by fitting double-referenced sensorgrams of the entire titration series to Langmuir model (1:1) using Biaevaluation software. The dissociation constant, KD, was calculated from the determined rate constants by the equation KD=kd/ka.

[4] = target: T1, extracellular domain of hCD4 fused with …; experiment: ELISA, purified hybridoma antibody on coated CD4-hFc
Description: as §1

[5] = target: T2, human CD4 on 293T cells stably …; experiment: FACS on 293T cells expressing human CD4, MFI; table under the graph (unit from the graph's axis); Table 6 of the text gives this value to 11E12
Description: as §3, §2

[6] = target: T2, human CD4 on 293T cells stably …; experiment: FACS on 293T cells expressing human CD4, MFI; table under the graph (unit from the graph's axis); Table 6 of the text gives this value to 29B7
Description: as §3, §2

[7] = target: T2, human CD4 on 293T cells stably …; experiment: FACS on 293T cells expressing human CD4, MFI; table under the graph (unit from the graph's axis); Table 6 of the text gives this value to 10C2
Description: as §3, §2

[8] = target: T2, human CD4 on 293T cells stably …; experiment: FACS on 293T cells expressing human CD4, MFI; table under the graph (unit from the graph's axis); Table 6 of the text gives this value to 2B6
Description: as §3, §2

Row | Binder | EC50 [1] | EC50 [2] | Kd [3] | koff [3] | kon [3] | EC50 [4] | also measured
1 | Chimeric 2B6 anti-CD4 antibody (antibody, human IgG1, kappa, V domains shown) VH: EVQLQESGPSLVKPSQTLSLTCSVTGDSITSGYWNWIRKFPGHKLEFLGYISFADTTNYNPSLKSRVSITRDTSKNQFDLQLKSVTTEDTATYHCARDDYGYYAMDYWGQGISVTVSS VL: DIHLTQTTSSLSASLGDRVTIICRASQDIDNYLNWYQLKPDGTLKLLIYYTSRLHSGVPSRFSGSGSGTEYSLTISNLEREDVATYFCQQGNTLPTFGAGTKLELKR | 0.0165 µg/mL | 0.669 µg/mL | 0.373 nM | 0.000122 s⁻¹ | 327000 M⁻¹ s⁻¹ |  | EC50 [5]: 0.316 µg/mL
2 | 2B6 murine hybridoma anti-CD4 antibody (antibody, V domains shown, also called hybridoma clone 2B6) VH: EVQLQESGPSLVKPSQTLSLTCSVTGDSITSGYWNWIRKFPGHKLEFLGYISFADTTNYNPSLKSRVSITRDTSKNQFDLQLKSVTTEDTATYHCARDDYGYYAMDYWGQGISVTVSS VL: DIHLTQTTSSLSASLGDRVTIICRASQDIDNYLNWYQLKPDGTLKLLIYYTSRLHSGVPSRFSGSGSGTEYSLTISNLEREDVATYFCQQGNTLPTFGAGTKLELK |  |  |  |  |  | 0.0261 µg/mL | 
3 | 11E12 murine hybridoma anti-CD4 antibody (antibody, V domains shown, also called hybridoma clone 11E12) VH: EVQLEESGPSLVKPSQTLSLTCSVTGDSITSSYWNWIRKFPGHKLEFLGYISFADTTNYNPSLKSRISITRDTSKNQFDLQLKSVTTEDTATYYCARDDFGYYAMDYWGQGISVTVSS VL: DIYVTQTTSSLSASLGDRVTIICRASQDINNYLNWYQLKPDGTLKLLIYYTSRLHSGVPSRFGGSGSGTEYSLTISNLEQEDVATYFCQQGNTLPTFGAGTKLELK |  |  |  |  |  | 0.027 µg/mL | 
4 | 10C2 murine hybridoma anti-CD4 antibody (antibody, V domains shown, also called hybridoma clone 10C2) VH: EVKLQQSGTELMKPGASVKISCKATGYTFSSYWIEWIKQRPGRGLEWIGEILPGSGSTNYNEEFTGRATFTADTFSNTAYMQLSSLTSEDSAVYYCARSVSASNWYFDVWGAGTTVTVSS VL: DIVMTQSPASLAVSLGQRATISCRASQSVSTSSYSYMHWYQQKPGQPPKFLIKYASNLESGVPARFSGSGSGTDFTLNIHPVEEEDTATYYCQHSWEIPPTFGGGTKLEIK |  |  |  |  |  | 0.0368 µg/mL | 

More lines, main results first:

Row | EC50 [1] | EC50 [2] | Kd [3] | koff [3] | kon [3] | EC50 [4] | Binder | also measured
5 | 0.0165 µg/mL | 0.515 µg/mL | 1.61 nM | 0.000941 s⁻¹ | 586000 M⁻¹ s⁻¹ |  | Chimeric MT412 anti-CD4 antibody (antibody, human IgG1, kappa, V domains shown) VH: QIQLVQSGPELKKPGETVKISCKASGYTFTDYSMHWVKQAPGKDLKWMGWINTETGEPTYADDFKGRFAFSLETSASTAYLQINNLKNEDTATYFCAREDYYGHDGFLYWGQGTLVTVSS VL: DIVMTQSHKFMSTSVGDRVSITCKASQDVVTTVAWYQQKPGQSPKLLIYWASLRHTGVPDRFTGSGSGTDFTLTISNVQFEDLADYFCQQYSSYPYTFGGGTKLEIKR | 
6 |  |  |  |  |  | 0.0334 µg/mL | 29B7 murine hybridoma anti-CD4 antibody (antibody, V domains shown, also called hybridoma clone 29B7) VH: QVQLQQSGAELAKPGASVKMSCKTSADSLNTHWMHWVKQRPGQGLEWIGYINPYTGSGEYSQKFKGKATLTADISSSTAYMQLISLTSEDSAVYYCAYDSTGAMDYWGQGTSVTVSS VL: DIKMTQSPSSMYASLGERITITCKASQDINRYLSWFQQKPGKSPKTPIYRADRSVDGVPSRFSGSGSGQDYSLTISSLEYEDMGIYYCQQYDEFPYTFGGGTKLEIK | 
7 | 0.0168 µg/mL | 0.316 µg/mL | 6.26 nM | 0.00618 s⁻¹ | 987000 M⁻¹ s⁻¹ |  | Chimeric 11E12 anti-CD4 antibody (antibody, human IgG1, kappa, V domains shown) VH: EVQLEESGPSLVKPSQTLSLTCSVTGDSITSSYWNWIRKFPGHKLEFLGYISFADTTNYNPSLKSRISITRDTSKNQFDLQLKSVTTEDTATYYCARDDFGYYAMDYWGQGISVTVSS VL: DIYVTQTTSSLSASLGDRVTIICRASQDINNYLNWYQLKPDGTLKLLIYYTSRLHSGVPSRFGGSGSGTEYSLTISNLEQEDVATYFCQQGNTLPTFGAGTKLELKR | EC50 [6]: 0.401 µg/mL
8 | 0.0204 µg/mL | 0.351 µg/mL | 4.25 nM | 0.00461 s⁻¹ | 1.09e+06 M⁻¹ s⁻¹ |  | Chimeric 33E12 anti-CD4 antibody (antibody, human IgG1, kappa, V domains shown) VH: DVQLQESGPGLVKPSQSLSLTCTVTGYSITSDYAWNWIRQFPGNKLEWMGYISYSGITSYNPSLKSRFSITRDTSKNQFFLQLNSVTTEDTATYYCARLDSSGYGAMDYWGQGTSVTVSS VL: DIVLTQSPASLPVSLGQRATISCRASQSVSTSSYSYMHWYQQKPGQPPKLLIRYASNLESGVPARFSGSGSGTDFTLNIHPVEEEDTATYYCQHSWDFPLTFGAGTKLELKR | EC50 [7]: 0.882 µg/mL
9 | 0.0179 µg/mL | 0.882 µg/mL | 1.19 nM | 0.00019 s⁻¹ | 160000 M⁻¹ s⁻¹ |  | Chimeric 10C2 anti-CD4 antibody (antibody, human IgG1, kappa, V domains shown) VH: EVKLQQSGTELMKPGASVKISCKATGYTFSSYWIEWIKQRPGRGLEWIGEILPGSGSTNYNEEFTGRATFTADTFSNTAYMQLSSLTSEDSAVYYCARSVSASNWYFDVWGAGTTVTVSS VL: DIVMTQSPASLAVSLGQRATISCRASQSVSTSSYSYMHWYQQKPGQPPKFLIKYASNLESGVPARFSGSGSGTDFTLNIHPVEEEDTATYYCQHSWEIPPTFGGGTKLEIKR | EC50 [8]: 0.669 µg/mL
10 |  |  |  |  |  | 0.034 µg/mL | 33E12 murine hybridoma anti-CD4 antibody (antibody, V domains shown, Mouse antibody purified from hybridoma supernatant on Protein A and detected with goat anti-mouse IgG; also called hybridoma clone 33E12) VH: DVQLQESGPGLVKPSQSLSLTCTVTGYSITSDYAWNWIRQFPGNKLEWMGYISYSGITSYNPSLKSRFSITRDTSKNQFFLQLNSVTTEDTATYYCARLDSSGYGAMDYWGQGTSVTVSS VL: DIVLTQSPASLPVSLGQRATISCRASQSVSTSSYSYMHWYQQKPGQPPKLLIRYASNLESGVPARFSGSGSGTDFTLNIHPVEEEDTATYYCQHSWDFPLTFGAGTKLELK | 

— patent publication US11254745 (CROWN BIOSCIENCE, dated 2022)
